Assay [1] deals with His6-tagged human GBP1 C589S (CaaX box mutant) (human) (UniProt P32455). Description: SEC; Superdex 200 10/300 GL on AKTA FPLC; 100 ug protein; 20 mM Tris (7.5), 140 mM NaCl, 2 mM MgCl2 with 200 uM GDP-AlF4- (transition state analogue); monomer to dimer.
In assay [2] the target is tag-free recombinant human GBP1, farnesylated (human) (UniProt P32455). Briefly: cryo-EM structure; cryo-electron tomography (300 kV) with sub-tomogram averaging of tag-free GBP1 coat assembled on Stm ΔwaaG::pBAD-ftsZ OMVs/minicells in the presence of GTP; 12,858 particles; dimer mask and monomer mask.

Usually stoichiometry N stands for the number of molecules, sites or subunits per partner or assembly. In assay [1], “His6-tagged human GBP1 C589S (CaaX box mutant) (from UniProt P32455 1-592) (natural protein)” displayed a stoichiometry N of 2.
As to “tag-free recombinant human GBP1, farnesylated (from UniProt P32455 1-592) (natural protein)”, the stoichiometry N in assay [2] was determined as 2.

(Values after PMC12091997.)
